Results reported in paper doi:10.1101/2024.05.21.594841 (bioRxiv, 2024).
Like-named read-outs stand apart in the source and are kept apart here.

T1: Scj1p (S. cerevisiae, UniProt P25303 22-377)
T1 sequence: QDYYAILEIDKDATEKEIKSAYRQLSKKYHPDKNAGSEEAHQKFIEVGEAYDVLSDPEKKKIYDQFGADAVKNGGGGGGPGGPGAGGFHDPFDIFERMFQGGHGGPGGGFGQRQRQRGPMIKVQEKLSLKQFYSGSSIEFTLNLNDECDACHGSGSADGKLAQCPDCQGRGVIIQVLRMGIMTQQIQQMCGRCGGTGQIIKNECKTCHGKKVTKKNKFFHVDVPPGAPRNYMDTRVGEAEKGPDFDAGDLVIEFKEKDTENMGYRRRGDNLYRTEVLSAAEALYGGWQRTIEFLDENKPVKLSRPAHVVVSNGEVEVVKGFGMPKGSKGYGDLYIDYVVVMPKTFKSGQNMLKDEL

T2: Sil1p (S. cerevisiae, UniProt Q08199 20-421)
T2 sequence: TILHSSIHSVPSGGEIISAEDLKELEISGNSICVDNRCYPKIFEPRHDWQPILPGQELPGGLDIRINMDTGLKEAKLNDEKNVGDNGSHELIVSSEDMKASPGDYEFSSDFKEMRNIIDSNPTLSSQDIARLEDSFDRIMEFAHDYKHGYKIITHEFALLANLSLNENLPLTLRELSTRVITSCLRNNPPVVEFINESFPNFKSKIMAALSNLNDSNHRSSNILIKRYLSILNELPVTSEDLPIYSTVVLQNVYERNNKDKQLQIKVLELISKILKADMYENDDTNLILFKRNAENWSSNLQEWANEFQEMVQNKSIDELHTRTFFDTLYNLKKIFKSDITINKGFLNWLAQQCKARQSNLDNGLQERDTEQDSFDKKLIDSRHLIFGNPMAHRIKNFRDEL

T3: Yos9p (S. cerevisiae, UniProt Q99220 22-542)
T3 sequence: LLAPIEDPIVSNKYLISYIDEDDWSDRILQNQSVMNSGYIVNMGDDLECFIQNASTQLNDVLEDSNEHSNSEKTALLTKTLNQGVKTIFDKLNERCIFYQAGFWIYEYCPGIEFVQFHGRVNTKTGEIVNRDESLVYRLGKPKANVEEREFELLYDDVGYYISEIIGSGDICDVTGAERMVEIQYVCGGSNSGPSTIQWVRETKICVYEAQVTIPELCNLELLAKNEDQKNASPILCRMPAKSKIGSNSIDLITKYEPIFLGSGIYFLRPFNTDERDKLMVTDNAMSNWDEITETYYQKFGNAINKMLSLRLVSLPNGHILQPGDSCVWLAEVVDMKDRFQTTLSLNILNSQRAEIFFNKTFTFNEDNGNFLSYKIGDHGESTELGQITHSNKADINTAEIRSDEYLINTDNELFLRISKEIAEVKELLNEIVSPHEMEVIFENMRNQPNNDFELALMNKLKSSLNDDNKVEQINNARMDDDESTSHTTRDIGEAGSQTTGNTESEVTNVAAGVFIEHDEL

T4: Mpd1p (S. cerevisiae, UniProt Q12404 22-318)
T4 sequence: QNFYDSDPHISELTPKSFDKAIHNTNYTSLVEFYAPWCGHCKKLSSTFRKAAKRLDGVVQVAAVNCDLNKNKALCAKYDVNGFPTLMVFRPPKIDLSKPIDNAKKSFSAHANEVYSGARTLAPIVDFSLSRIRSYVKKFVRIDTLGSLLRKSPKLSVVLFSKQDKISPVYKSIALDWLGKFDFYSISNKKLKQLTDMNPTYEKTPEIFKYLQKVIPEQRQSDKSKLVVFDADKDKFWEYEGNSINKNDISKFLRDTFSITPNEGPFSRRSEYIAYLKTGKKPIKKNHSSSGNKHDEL

T5: Lto1p (yeast, UniProt P53846 1-162)
T5 sequence: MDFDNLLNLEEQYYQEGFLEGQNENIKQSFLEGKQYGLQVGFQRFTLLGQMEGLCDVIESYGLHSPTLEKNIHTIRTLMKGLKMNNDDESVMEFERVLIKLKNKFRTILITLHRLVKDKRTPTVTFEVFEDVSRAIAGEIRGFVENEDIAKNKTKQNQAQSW

B1: Kar2p (natural protein)
chain: not shown
B2: Sed4p (natural protein)
chain: MSGNSANYDVGYPIYGAKFINEGTLLVAGGGGQFNSSFPNKITALKVNFQKKKHIRRFREITLDSIDDAPTSLDCNNNLILVGCNELFNDSSMENVNHHLRKFVFEQEHLKFVASIDFNRTTDPSVFTKFVYINQRATVAAIASSEVPTVIRIIDPRNLTENYEIETGREVNDLHFAPNGILLSYITSNSLEVASVRDGNFVARKTDFDKNLVLSNIRFLNDNTLLVAASLSNSDGVSLLKLGVSSKGVKILKTASFMFDLNGITSMDVSPNKKFVALSSNDNLVAIVSVEKLKLVQLVPRVHESTITKVTFSPDSRYLASTSMGNTINVLKLSGTSSSILRNIWKFFLNFVLLVVLAGAIQLGYKHNVHGFIYKHAHDIYKSKFKENTTIDQGSSSYFTINDDYRGITESADIISATDVASDIETEFSSFDTSTMRTTTEDEQKFVWISSSADSQFTSADIPTSASSSSSSSSSSFYEESVTNEPIVSSPTSEITKPLASPTEPNIVEKPSLPLNSESIDLLSSSSNSITEYPEPTPDLEEKLSSLIVEQSESEITTDRESVSKLLSTESPSLSHMPSSSSSSLSLSSSLTTSPTTALSTSTATAVTTTQTNPTNDAANTSFLDNSKPASTREIYKTKIITEVITKIEYRNIPASDSNAEAEQYVTTSSSMLLTPTDTMVSSPVSEIDPIASELERMVETPTHSISIASEFDSVASNLIPNEEILSTSASQDSISSHPSTFSDSSITSGFQSIEVSTVTSSVLASESIPSISDSTFSKFHSISEPVSSAIVETATSSFSKTETKTSRVIAFSTEDSERSSALIDNSEYTSVLADNLEPTSVLADNSEPTSVLADSSEPTSVFTDAVQSPKTSVGQSSLSESTNIEGTSMASMIFSSSGASIGALSDIGKGTLSVESASSTVAQPMPGVTTTAPSFVSSPHKISASSIDASGFVQKEIMIEVQSSKDSSEAFGVRHKISENVNTPVSRMLTTEMQASGTVDVTEDVSLSSEVISALNVEITSLPNPVAPPQTIAAPLNNNSNTNIVNDDNAVAGTVNYAGLHDEL
B3: Pdi1p (natural protein)
chain: PEDSAVVKLATDSFNEYIQSHDLVLAEFFAPWCGHCKNMAPEYVKAAETLVEKNITLAQIDCTENQDLCMEHNIPGFPSLKIFKNSDVNNSIDYEGPRTAEAIVQFMIKQSQPAVAVVADLPAYLANETFVTPVIVQSGKIDADFNATFYSMANKHFNDYDFVSAENADDDFKLSIYLPSAMDEPVVYNGKKADIADADVFEKWLQVEALPYFGEIDGSVFAQYVESGLPLGYLFYNDEEELEEYKPLFTELAKKNRGLMNFVSIDARKFGRHAGNLNMKEQFPLFAIHDMTEDLKYGLPQLSEEAFDELSDKIVLESKAIESLVKDFLKGDASPIVKSQEIFENQDSSVFQLVGKNHDEIVNDPKKDVLVLYYAPWCGHCKRLAPTYQELADTYANATSDVLIAKLDHTENDVRGVVIEGYPTIVLYPGGKKSESVVYQGSRSLDSLFDFIKENGHFDVDGKALYEEAQEKAAEEADADAELADEEDAIHDEL
B4: Sec20p (natural protein)
chain: MVVTFLQDLEVLQDALLNNLQKLSAISRRKESGESKHDNKDSFAAIANEHNDEEEEIEFEDLVNIIESKVSDFESVLKCSIVEMTYKYPELKLQWEKSPRYDQCDKLHIVKLDKQMNEDIYAQLVEELDFVLQFVDWFYCYRLKVKEILRQHHKRDLAWNDEKRDRAIKFHAVDYDKLHQGTSSSSSLTSTSMEKASTREKLLSKTKQLTNNLVRGNQILQSGILQSDLNLDELRAQTNSLTQIDDKYTQFETVFKKTADLVKVLENASHQEKRDVYLSLGFLLCCVSWVLWRRIFKLPVKLGLWLLFKFFKGILVTLGLVKSYAGSSSSLQAPSLVLNAPILATTTTSSATSVEPFASVSAVSSIQRAVDEAVDRIVSHDEL
B5: Eug1p (natural protein)
chain: TPGSDLLVLTEKKFKSFIESHPLVLVEFFAPWCLHSQILRPHLEEAASILKEHNVPVVQIDCEANSMVCLQQTINTYPTLKIFKNGRIFDGQVYRGVKITDEITQYMIQLYEASVIYLNSEDEIQPYLENATLPVVINRGLTGLNETYQEVALDLAEDYVFLSLLDSEDKSLSIHLPNTTEPILFDGNVDSLVGNSVALTQWLKVVILPYFTDIEPDLFPKYISSNLPLAYFFYTSEEELEDYTDLFTQLGKENRGQINFIALNSTMFPHHVRFLNMREQFPLFAIHNMINNLKYGLPQLPEEEYAKLEKPQPLDRDMIVQLVKDYREGTAKPIVKSEEIPKEQKSNVYKIVGKTHDDIVHDDDKDVLVKYYATWCIHSKRFAPIYEEIANVLASDESVRDKILIAEVDSGANDILSFPVTGYPTIALYPAGNNSKPIIFNKIRNLEDVFEFIKESGTHHIDGQAIYDKLHQAKDSEVSTEDTVHDEL
B6: Yae1p (natural protein)
chain: MSNTWDDVWASDSDVETERSPDLVKLRENHSKRGYLDGIVSSKEEKLQEGFNDGFPTGAKLGKQVGIIMGILLGLRTRFGDEDEDLSKAYIDAQKELRINKVLSKSIFDPNFDLQEKHPLITKWTDIANTYCEKYHVPSIQ

Tests used:
Test in all cases: split reporter
Scj1p = target: T1, Scj1p
Cpr5p [1] = target: T6, Cpr5p (S. cerevisiae, UniProt P35176 23-225)
T6 sequence (P35176 23-225): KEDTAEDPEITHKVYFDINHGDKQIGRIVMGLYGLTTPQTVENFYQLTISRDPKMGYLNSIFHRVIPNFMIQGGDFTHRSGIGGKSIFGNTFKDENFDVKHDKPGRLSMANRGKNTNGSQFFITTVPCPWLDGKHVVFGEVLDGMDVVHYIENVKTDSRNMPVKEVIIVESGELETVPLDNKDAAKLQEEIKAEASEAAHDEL

Sil1p = target: T2, Sil1p
Yos9p = target: T3, Yos9p
Mpd1p [2] = target: T4, Mpd1p
Cpr5p [3] = target: T6, Cpr5p; remark: listed apart in the source
Mpd1p [4] = target: T4, Mpd1p; remark: listed apart in the source
Kar2p [5] = target: B1
Kar2p, sequence (P16474 43-682): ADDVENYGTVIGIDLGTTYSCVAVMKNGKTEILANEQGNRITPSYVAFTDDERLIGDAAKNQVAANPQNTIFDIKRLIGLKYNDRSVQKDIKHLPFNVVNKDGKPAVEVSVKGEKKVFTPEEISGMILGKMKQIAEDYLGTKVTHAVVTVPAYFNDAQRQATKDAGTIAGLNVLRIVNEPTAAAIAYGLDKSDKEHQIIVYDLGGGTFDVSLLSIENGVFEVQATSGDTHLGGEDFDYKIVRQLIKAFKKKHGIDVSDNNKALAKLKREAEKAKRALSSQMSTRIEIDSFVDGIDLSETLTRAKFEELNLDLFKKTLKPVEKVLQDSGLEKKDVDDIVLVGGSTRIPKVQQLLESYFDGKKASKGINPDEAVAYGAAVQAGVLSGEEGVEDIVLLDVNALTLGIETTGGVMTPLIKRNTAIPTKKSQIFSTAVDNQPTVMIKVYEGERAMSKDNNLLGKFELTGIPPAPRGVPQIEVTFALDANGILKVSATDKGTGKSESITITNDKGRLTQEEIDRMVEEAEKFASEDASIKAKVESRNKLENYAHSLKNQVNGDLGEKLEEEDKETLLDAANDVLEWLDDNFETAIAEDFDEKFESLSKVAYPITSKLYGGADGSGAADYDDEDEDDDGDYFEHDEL

Kar2p [6] = target: B1; remark: listed apart in the source
Lto1p = target: T5, Lto1p

Row | normalized interacting score (Scj1p) | normalized interacting score (Cpr5p [1]) | normalized interacting score (Sil1p) | normalized interacting score (Cpr5p [3]) | Binder | also measured
1 | 10% | 78% | 35% | 31% | B1 | normalized interacting score (Yos9p): 20%; normalized interacting score (Mpd1p [2]): 86%; normalized interacting score (Mpd1p [4]): 65%
2 |  |  |  |  | B2 | normalized interacting score (Kar2p [5]): 34%
3 |  | 32% |  | 18% | B3 | 
4 |  | 26% | 32% |  | B4 | normalized interacting score (Kar2p [6]): 42%
5 | 5% |  |  |  | B5 | 
6 |  |  |  |  | B6 | normalized interacting score (Lto1p): 96%
